Series [1] concerns the molecule itself. As to the kind of experiment: SEC; HTRA proteins and their LoopA deletion mutants alone; Superdex 200 Increase 3.2/300; 200 mM NaCl, 20 mM HEPES pH 7.5, 0.25% CHAPS; size against gel filtration standard.
Series [2] addresses T1, HTRA1^PD (human HTRA1 protease domain, D161-K379) (human, UniProt Q92743).
T1 construct: human HTRA1 protease domain, D161-K379, 24 kDa; His6 tag is TEV or thrombin cleavable; captured by it in SPR; also called wildtype HTRA1^PD; active HTRA1^PD; source: E. coli, purified (Ni-NTA, SEC); not shown: His6, N-terminal, kept
As to the kind of experiment: SEC; HTRA1 proteins mixed with Fab15H6.v4 (1:2 molar ratio, 30 min on ice); Superdex 200 Increase 3.2/300; 200 mM NaCl, 20 mM HEPES pH 7.5, 0.25% CHAPS; size against protein standards. The settings on record: both partners purified.

For series [3], the target named is T2, HTRA1^PD/SA (catalytically inactive S328A mutant of the HTRA1 protease domain) (human, UniProt Q92743, S328A).
T2 construct: human HTRA1 protease domain, D161-K379, with S328A; source: E. coli, purified (Ni-NTA, SEC)
The description is as above. The settings on record: both partners purified.

The target in series [4] is T3, HTRA1^FL/SA (catalytically inactive S328A mutant of full-length HTRA1) (human, UniProt Q92743, S328A).
T3 construct: human HTRA1, Q23-P480, with S328A; source: Trichoplusia ni cells, purified from the medium (Ni-NTA, SEC)
Described as above. The settings on record: both partners purified.

The target of series [5] is T4, HTRA1 LoopA wildtype peptide (Homo sapiens).
T4 construct: LoopA of human HTRA1, residues 190-201; also called HTRA1-LoopA peptide; LoopA peptide; source: synthetic peptide (Abclonal for SPR; NeoBiolab for the crystal)
T4 chain: RKLPFSKREVPV
As to the kind of experiment: SPR; Fab15H6.v4 (1000 RU) immobilised on a CM5 chip by amine coupling, synthetic LoopA peptides as analytes, single-cycle kinetics, three-fold dilutions from 10 nM (HTRA1 peptides) or 3 μM (HTRA2, HTRA3, HTRA4 peptides); 25 °C, HBS-EP. Conditions: both partners purified.

The target of series [6] is T5, HTRA2 LoopA wildtype peptide (Homo sapiens).
T5 construct: LoopA of human HTRA2, residues 168-179; also called LoopA peptide of HTRA2; source: synthetic peptide (Abclonal)
T5 chain: DRHPFLGREVPI
The series is described as above. Conditions: both partners purified.

Series [7] concerns the target T6, HTRA3 LoopA wildtype peptide (Homo sapiens).
T6 construct: LoopA of human HTRA3, residues 161-172; also called LoopA peptide of HTRA3; source: synthetic peptide (Abclonal)
T6 chain: LRHPLFGRNVPL
The description is as above. The settings on record: both partners purified.

Series [8] deals with T7, HTRA4 LoopA wildtype peptide (Homo sapiens).
T7 construct: LoopA of human HTRA4, residues 188-199; also called LoopA peptide of HTRA4; source: synthetic peptide (Abclonal)
T7 chain: GRLLHGSRLVPV
The series is described as above. The settings on record: both partners purified.

Series [9] concerns the target T8, HTRA2^PD/PDZ (HTRA2 protease/PDZ domain, A134-E458) (human, UniProt O43464).
T8 construct: human HTRA2 protease and PDZ domains, A134-E458; also called wildtype HTRA2; source: E. coli, purified (Ni-NTA, SEC); not shown: His6, N-terminal, kept
As to the kind of experiment: SPR; His6-tagged HTRA proteins (about 200 RU) captured with the His-capture kit on a CM5 chip, Fab15H6.v4 as analyte, single-cycle kinetics, three-fold dilutions from 1 nM or 1 μM; absence of binding verified with 3 μM Fab; Biacore S200, 25 °C, HBS-EP; 1:1 Langmuir model. The settings on record: both partners purified.

The target in series [10] is T9, HTRA3^PD/PDZ (HTRA3 protease/PDZ domain, L130-M453) (Homo sapiens, UniProt P83110).
T9 construct: human HTRA3 protease and PDZ domains, L130-M453; also called wildtype HTRA3; source: E. coli, purified (Ni-NTA, SEC); not shown: His6, N-terminal, kept
T9 sequence (P83110 130-453): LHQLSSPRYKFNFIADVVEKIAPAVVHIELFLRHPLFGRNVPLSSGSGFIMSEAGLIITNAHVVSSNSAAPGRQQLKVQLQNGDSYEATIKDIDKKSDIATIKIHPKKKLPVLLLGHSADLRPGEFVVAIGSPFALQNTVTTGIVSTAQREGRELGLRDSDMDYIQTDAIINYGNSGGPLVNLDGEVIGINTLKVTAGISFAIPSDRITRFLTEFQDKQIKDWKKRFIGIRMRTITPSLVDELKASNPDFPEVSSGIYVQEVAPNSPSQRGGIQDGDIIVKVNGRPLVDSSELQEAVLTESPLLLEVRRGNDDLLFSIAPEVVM
The series is described as above. The settings on record: both partners purified.

Series [11] deals with T1, HTRA1^PD (human HTRA1 protease domain, …). Described as above. The settings on record: both partners purified.
For series [12] the target is unchanged. The series is described as follows: SPR; wildtype His6-tagged HTRA1^PD (about 200 RU) captured with the His-capture kit on a CM5 chip; scFv15H6.v4, Fab15H6.v4 and its mutants as analytes, single-cycle kinetics, three-fold dilutions from 10 nM or 1 μM; absence of binding confirmed up to 3 μM; 25 °C, HBS-EP. Conditions: both partners purified.

Residue numbers refer to the chain shown, from its start. In names and notes the source's numbering stands.

B1: HTRA1^PD-ΔLoopA (domain or fragment)
chain: not shown
notes: human HTRA1 protease domain, D161-K379, entire LoopA replaced with the beta hairpin motif NG; also called HTRA1-ΔLoopA; HTRA1^PD-ΔLoop mutant; source: E. coli, purified (Ni-NTA, SEC); not shown: His6, N-terminal, kept
Consider B1, for which the “stoichiometry N” value in [1] came to 3.

B2: HTRA2^PD/PDZ (HTRA2 protease/PDZ domain, A134-E458) (domain or fragment, human, UniProt O43464 134-458, looked up)
chain: AVPSPPPASPRSQYNFIADVVEKTAPAVVYIEILDRHPFLGREVPISNGSGFVVAADGLIVTNAHVVADRRRVRVRLLSGDTYEAVVTAVDPVADIATLRIQTKEPLPTLPLGRSADVRQGEFVVAMGSPFALQNTITSGIVSSAQRPARDLGLPQTNVEYIQTDAAIDFGNSGGPLVNLDGEVIGVNTMKVTAGISFAIPSDRLREFLHRGEKKNSSSGISGSQRRYIGVMMLTLSPSILAELQLREPSFPDVQHGVLIHKVILGSPAHRAGLRPGDVILAIGEQMVQNAEDVYEAVRTQSQLAVQIRRGRETLTLYVTPEVTE
notes: human HTRA2 protease and PDZ domains, A134-E458; also called wildtype HTRA2; source: E. coli, purified (Ni-NTA, SEC); not shown: His6, N-terminal, kept
Take B2: the “stoichiometry N” value in [1] was 3.

B3: Fab15H6.v4 (Fab, V domains shown)
VH: EVQLVQSGAEVKKPGASVKVSCKASGYKFTDSEMHWVRQAPGQGLEWIGGVDPETEGAAYNQKFKGRATITRDTSTSTAYLELSSLRSEDTAVYYCTRGYDYDYALDYWGQGTLVTVSS
VL: DIQMTQSPSSLSASVGDRVTITCRASSSVEFIHWYQQKPGKAPKPLISATSNLASGVPSRFSGSGSGTDFTLTISSLQPEDFATYYCQQWSSAPWTFGQGTKVEIK
notes: light chain of Fab15H6.v4; also called the Fab; source: expressed in Complete CRAP media with carbenicillin, purified (Protein G, SP Sepharose)
For B3, the “stoichiometry N” value in [2], in [3] and in [4] was 3 Fab per HTRA1 trimer throughout. Also, the values for the Kd in series [5] and in series [11] were 0.77 nM and 0.12 nM, respectively. Further, the binding result in series [6] was “no binding (tested: 3 μM)”; in series [7] it was “no binding (tested: 3 μM)”; in series [8], “no binding (tested: 3 μM)”; in series [9], “no binding (tested: 3 μM Fab)”; in [10] it was “no binding (tested: 3 μM Fab)”.

B4: scFv15H6.v4 (single chain Fv version of Fab15H6.v4) (scFv, V domains shown)
VH: B3 VH
VL: B3 VL
notes: variable domain of the light chain of m1, D1-K106; (GGGGS)4 linker; variable domain of the heavy chain of m1, E1-S119
As for B4, the dissociation constant (Kd) in series [12] was found to be 9.4 nM.

B5: Fab15H6.v4 with all eight key paratope residues mutated to alanine (Fab, V domains shown)
VH: B3 VH with T30A, D31A, S32A, D52A, T91A, Y100A, D101A, Y102A
VL: B3 VL
notes: as the heavy chain of m1, with eight paratope residues of the three CDR loops changed to alanine; as the light chain of m1
On to B5, for which the binding result in series [12] is listed as “no binding (tested: 3 μM)”.

B6: Fab15H6.v4 Y100A (Fab, V domains shown)
VH: B3 VH with Y100A
VL: B3 VL
notes: as the heavy chain of m1, with Y100A; as the light chain of m1
Consider B6, for which the “fold affinity loss against Fab15H6.v4” value in [12] came to 200 fold.

B7: Fab15H6.v4 D52A (Fab, V domains shown)
VH: B3 VH with D52A
VL: B3 VL
notes: as the heavy chain of m1, with D52A; as the light chain of m1
As to B7, the “fold affinity loss against Fab15H6.v4” value in series [12] was found to be 2000 fold.

Source of the values: paper PMC9445180, “Allosteric inhibition of HTRA1 activity by a conformational lock mechanism to treat age-related macular degeneration” (Nature Communications, 2022).
